From patent publication US10919943B2, “Mutant proteins enabling agrochemical control of plant gene expression” (The Regents of the University of California, priority 2016, dated 2021)

What was measured:
[1] = test system: Arabidopsis; experiment: Overexpression of HAB1^!-2 (35S::GFP-HAB1^!-2) in Arabidopsis, T1 plant phenotype; assay type: in vivo
Text: To investigate the effects of overexpressing HAB1^!-2 in Arabidopsis, we used Agrobacterium mediated transformation to generate 35S::GFP-HAB1^!-2 transgenic plants. HAB1^!-2 was cloned from pACT-HAB1^!-2 into pEGAD, a binary vector suitable for plant transformation, generating a 35S-driven GFP-HAB1^!-2 fusion protein. The clone was transformed into Agrobacterium and the floral dip method used to transform Arabidopsis. After selection of T0 seed on soil containing glufosinate, several T1 seedlings were identified. […] As an alternate strategy, we eliminated HAB1's catalytic activity by introducing a mutation in a conserved metal-ion binding residue (D204), which is homologous to D131A mutation in ABI1, previously shown to eliminate phosphatase activity without disrupting wild type receptor-ABI1 interactions (Liang et al., 2011). We used QuickChange mutagenesis to introduce the D204A mutation into pACT-HAB1^!-2, generating pACT-HAB1^!-3. When tested for mandipropamid induced interactions with pBD-PYR1*^-MANDI, HAB1^!-3 is ˜10-fold less sensitive to mandipropamid relative to HAB1^!-2 (FIG. 5).

[2] = test system: HAB1^!-2; experiment: Yeast two hybrid, mandipropamid-promoted interaction of PYR1 variants with HAB1^!-2; assay type: cell-based; settings: FIG. 3, FIG. 4
Text: (§1) To engineer orthogonal mandipropamid responsiveness, we introduced the PYR1^! mutation into the PYR1^MANDI receptor to create a septuple mutant called PYR1^!-MANDI (PYR1^Y58H;K59R;V81I;F108A;S122G;F159L;T162D). This mutant interacts with HAB1^! and HAB^!-2 in response to low μM mandipropamid in yeast two-hybrid assays, but is ˜100-fold less sensitive than the PYR1^MANDI/HAB1 interaction, which responds to concentrations in the low nM range (FIG. 3).
To improve sensitivity, we mutagenized ligand contacting and interface residues in PYR1^!-MANDI using NNK primers, pooled the mutant libraries, and used the mutagenized receptors in selection experiments using to identify enhancer mutations. The NNK mutagenesis screen targeted the following residues: P55, H60, F61, I62, K63, V83, S85, G86, L87, P88, A89, S92, E94, I110, H115, R116, L117, Y120, E141, P148, G150, N151, D154, D155, T156, M158, A160, V163, V164, L166, N167, and K170. […] Since M158 and A160 flank the […] mutation present in PYR1^MANDI, we inferred that the closely located orthogonalizing T162D mutation in PYR1^!-MANDI may have reduced mandipropamid sensitivity by altering the local structure of the C-terminal α3-helix, which participates in ligand-induced conformational changes needed for PP2C binding (Nishimura et al., 2009). We therefore simultaneously mutagenized positions M158, F159 and A160 using a primer with degenerate NNK codons at all three positions. F159 was included in this mutagenesis because we have previously observed that multiple substitutions at F159 (A,C,I,L,M,T, or V) are permissive for mandipropamid responsiveness (S. Y. Park et al., n.d.), and sought to test whether residues other than leucine at position 159 might function better in the context of simultaneous changes to both A160 and M158. The mutagenic primer was used in QuickChange mutagenesis reactions using pBD-PYR1^!-MANDI template, and a library of ˜12,000 clones was generated. Plasmid DNA for the library was prepared from pooled E. coli transformants, and subsequently transformed into S. cerevisiae strain MAV99 harboring pACT-HAB1^!-2. ˜20,000 yeast transformants were generated, pooled, and plated onto SD(-Leu,-Trp) agar media supplemented with 0.1% fluorotic acid (to select against mutants that interact in a ligand-independent fashion). The surviving cells were collected and plated onto SD(Leu,-Trp,-Ura) plates supplemented with 50 nM mandipropamid. The colonies displaying the best uracil-independent growth were isolated and retested on different mandipropamid concentrations and then stained in β-galactosidase assays to rank their relative strength.

[3] = target: T1, HAB1^! (Arabidopsis thaliana, UniProt O49686+Q9CAJ0, F108A/F159L/K59R/S122G/T162D/V393R/V81I/Y58H); experiment: Yeast two hybrid, mandipropamid-promoted interaction of PYR1 variants with HAB1^!; assay type: cell-based; settings: FIG. 3
T1 construct: expressed in transfected cells
Text: as §1

T1 sequence (Q9CAJ0 4-511 V393R, one chain of several): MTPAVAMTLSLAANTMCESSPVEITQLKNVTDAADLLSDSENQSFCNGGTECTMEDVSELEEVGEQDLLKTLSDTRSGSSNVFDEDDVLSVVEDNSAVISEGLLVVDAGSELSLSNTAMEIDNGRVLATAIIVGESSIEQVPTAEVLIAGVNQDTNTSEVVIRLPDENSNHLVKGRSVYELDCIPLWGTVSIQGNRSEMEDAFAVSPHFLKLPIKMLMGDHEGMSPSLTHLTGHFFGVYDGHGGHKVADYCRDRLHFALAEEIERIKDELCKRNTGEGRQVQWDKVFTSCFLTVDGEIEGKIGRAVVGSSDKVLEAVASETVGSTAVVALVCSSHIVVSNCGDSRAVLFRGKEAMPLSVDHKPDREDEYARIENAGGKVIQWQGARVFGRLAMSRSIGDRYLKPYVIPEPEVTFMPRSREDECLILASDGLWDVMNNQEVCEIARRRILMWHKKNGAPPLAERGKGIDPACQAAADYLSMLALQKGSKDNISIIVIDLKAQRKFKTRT

Molecule | phenotype of T1 plants [1] | mandipropamid concentration to which the interaction responds [2] | mandipropamid concentration to which the interaction responds [3]
HAB1^!-2: HAB1 double mutant V393R, R505A (protein, left off: small tags and cut ends, HAB1 double mutant V393R, R505A) MTPAVAMTLSLAANTMCESSPVEITQLKNVTDAADLLSDSENQSFCNGGTECTMEDVSELEEVGEQDLLKTLSDTRSGSSNVFDEDDVLSVVEDNSAVISEGLLVVDAGSELSLSNTAMEIDNGRVLATAIIVGESSIEQVPTAEVLIAGVNQDTNTSEVVIRLPDENSNHLVKGRSVYELDCIPLWGTVSIQGNRSEMEDAFAVSPHFLKLPIKMLMGDHEGMSPSLTHLTGHFFGVYDGHGGHKVADYCRDRLHFALAEEIERIKDELCKRNTGEGRQVQWDKVFTSCFLTVDGEIEGKIGRAVVGSSDKVLEAVASETVGSTAVVALVCSSHIVVSNCGDSRAVLFRGKEAMPLSVDHKPDREDEYARIENAGGKVIQWQGARVFGRLAMSRSIGDRYLKPYVIPEPEVTFMPRSREDECLILASDGLWDVMNNQEVCEIARRRILMWHKKNGAPPLAERGKGIDPACQAAADYLSMLALQKGSKDNISIIVIDLKAQAKFKTRT | symptoms of severe ABA insensitivity, including dwarf stature and high sensitivity to water deficit |  | 
PYR1^!-MANDI: septuple PYR1 mutant (protein, UniProt O49686 1-191, looked up, variant Y58H K59R V81I F108A S122G F159L T162D) Abscisic acid receptor PYR1: MPSELTPEERSELKNSIAEFHTYQLDPGSCSSLHAQRIHAPPELVWSIVRRFDKPQTHRHFIKSCSVEQNFEMRVGCTRDIIVISGLPANTSTERLDILDDERRVTGASIIGGEHRLTNYKGVTTVHRFEKENRIWTVVLESYVVDMPEGNSEDDTRMLADDVVKLNLQKLATVAEAMARNSGDGSGSQVT |  | low μM | low μM
